± gives the uncertainty stated by the source.
B1: Tripartite motif-containing protein 6, residues 93 to 134; numbered along this chain, Q9C030 (parent)
chain: KAVLCADHGEKLQLFCQEDGKVICWLCERSQEHRGHHTFLVE

Variants of: B1
Assay: abundance fitness (aPCA) (normalised: wild type 0, dead -1); higher = more abundant; growth selection in yeast, the domain comes from the species named
Settings: Homo sapiens
With K21Y the abundance fitness was -0.035 ± 0.09.
In the case of K21F, the abundance fitness is reported as -0.403 ± 0.26.
Work on K21R yielded an abundance fitness of 0.086 ± 0.055.
K21H gave an abundance fitness of -0.136 ± 0.12.
Variant K21E has an abundance fitness of 0.047 ± 0.091.
Work on K21V yielded an abundance fitness of 0.086 ± 0.065.
K21W showed an abundance fitness of -0.403 ± 0.079.
K21D showed an abundance fitness of -0.29 ± 0.23.
Work on K21M yielded an abundance fitness of -0.284 ± 0.087.
In the case of K21C, the abundance fitness is reported as -0.402 ± 0.38.
For K21L, the abundance fitness was -0.283 ± 0.063.
With K21T the abundance fitness was -0.183 ± 0.17.
With K21A the abundance fitness was -0.099 ± 0.078.
K21Q gave an abundance fitness of -0.358 ± 0.19.
Work on K21N yielded an abundance fitness of -0.034 ± 0.16.
E18T gave an abundance fitness of -0.038 ± 0.12.
E18L showed an abundance fitness of -1 ± 0.26.
With E18H the abundance fitness was -0.265 ± 0.29.
Work on E18Q yielded an abundance fitness of -0.146 ± 0.11.
E18I gave an abundance fitness of -0.364 ± 0.29.
E18W showed an abundance fitness of -0.537 ± 0.13.
Variant E18R has an abundance fitness of -0.302 ± 0.068.
Variant E18G has an abundance fitness of -0.434 ± 0.18.
With E18K the abundance fitness was -0.349 ± 0.12.
Variant E18A has an abundance fitness of -0.428 ± 0.083.
For E18V, the abundance fitness was -0.261 ± 0.084.
D19G gave an abundance fitness of -0.757 ± 0.19.
For D19I, the abundance fitness was -0.888 ± 0.31.
For D19H, the abundance fitness was -0.289 ± 0.12.
In the case of D19C, the abundance fitness is reported as 0.627 ± 0.2.
D19R gave an abundance fitness of -0.584 ± 0.092.
Variant D19A has an abundance fitness of -0.807 ± 0.35.
For D19S, the abundance fitness was -0.391 ± 0.3.
Variant C16N has an abundance fitness of -0.298 ± 0.061.
Variant C16T has an abundance fitness of -0.747 ± 0.087.
In the case of C16H, the abundance fitness is reported as -0.337 ± 0.078.
Variant C16V has an abundance fitness of -0.451 ± 0.051.
C16E showed an abundance fitness of -0.174 ± 0.05.
In the case of C16S, the abundance fitness is reported as -0.286 ± 0.048.
Work on C16A yielded an abundance fitness of -0.284 ± 0.042.
C16M gave an abundance fitness of -0.584 ± 0.075.
In the case of C16W, the abundance fitness is reported as -0.802 ± 0.083.
C16R gave an abundance fitness of -0.354 ± 0.042.
In the case of C16K, the abundance fitness is reported as -0.275 ± 0.063.
C16G showed an abundance fitness of -0.304 ± 0.038.
Work on C16D yielded an abundance fitness of -0.218 ± 0.055.
Variant Q17A has an abundance fitness of -0.109 ± 0.053.
Q17W showed an abundance fitness of -0.335 ± 0.092.
Q17G showed an abundance fitness of -0.341 ± 0.046.
Variant Q17V has an abundance fitness of -0.373 ± 0.092.
For Q17H, the abundance fitness was -0.235 ± 0.14.
For Q17K, the abundance fitness was 0.248 ± 0.1.
Q17R gave an abundance fitness of -0.043 ± 0.05.
In the case of Q17M, the abundance fitness is reported as -0.605 ± 0.18.
With Q17L the abundance fitness was -0.364 ± 0.086.
With Q17P the abundance fitness was -0.297 ± 0.11.
In the case of Q17Y, the abundance fitness is reported as -0.406 ± 0.11.
With Q17S the abundance fitness was -0.316 ± 0.1.
Work on Q17I yielded an abundance fitness of 0.376 ± 0.25.
Q17T showed an abundance fitness of -0.086 ± 0.07.
For Q17F, the abundance fitness was -0.512 ± 0.15.
With Q17E the abundance fitness was 0.053 ± 0.051.
Q17C showed an abundance fitness of -0.024 ± 0.063.
With W25D the abundance fitness was 0.067 ± 0.11.
In the case of W25A, the abundance fitness is reported as 0.118 ± 0.044.
Variant W25C has an abundance fitness of 0.026 ± 0.051.
With C24Q the abundance fitness was -0.748 ± 0.12.
C24I gave an abundance fitness of -0.753 ± 0.46.
Variant C24P has an abundance fitness of -0.517 ± 0.13.
In the case of C24S, the abundance fitness is reported as -0.717 ± 0.14.
C24D showed an abundance fitness of -0.822 ± 0.16.
Variant C24E has an abundance fitness of -0.627 ± 0.093.
C24T gave an abundance fitness of -0.664 ± 0.19.
Work on C24V yielded an abundance fitness of -1.19 ± 0.18.
C24G gave an abundance fitness of -1.16 ± 0.12.
For C24R, the abundance fitness was -1.02 ± 0.15.
For C24Y, the abundance fitness was -0.725 ± 0.34.
Variant C24L has an abundance fitness of -1.1 ± 0.21.
In the case of C24W, the abundance fitness is reported as -0.908 ± 0.33.
For C24A, the abundance fitness was -0.886 ± 0.16.
Work on C24K yielded an abundance fitness of -0.615 ± 0.31.
Variant G20S has an abundance fitness of -0.331 ± 0.17.
Variant G20T has an abundance fitness of -0.142 ± 0.098.
In the case of G20D, the abundance fitness is reported as 0.202 ± 0.065.
Variant G20V has an abundance fitness of -0.431 ± 0.11.
In the case of G20L, the abundance fitness is reported as 0.117 ± 0.48.
For G20A, the abundance fitness was -0.036 ± 0.064.
Work on G20R yielded an abundance fitness of -0.111 ± 0.075.
G20E showed an abundance fitness of 0.103 ± 0.087.
G20K gave an abundance fitness of -0.284 ± 0.41.
Work on G20Q yielded an abundance fitness of -0.053 ± 0.084.
With G20P the abundance fitness was -0.338 ± 0.36.
With G20H the abundance fitness was -0.225 ± 0.12.
With I23A the abundance fitness was -0.463 ± 0.091.
I23Q showed an abundance fitness of -0.842 ± 0.2.
I23H showed an abundance fitness of -0.202 ± 0.11.
I23L showed an abundance fitness of -0.361 ± 0.074.
In the case of I23S, the abundance fitness is reported as -0.579 ± 0.098.
In the case of I23V, the abundance fitness is reported as -0.168 ± 0.091.
With I23N the abundance fitness was -0.091 ± 0.16.
Work on I23R yielded an abundance fitness of -0.34 ± 0.063.
Work on I23W yielded an abundance fitness of -0.483 ± 0.11.
For I23G, the abundance fitness was -0.346 ± 0.048.
I23E showed an abundance fitness of -0.581 ± 0.13.
V22E showed an abundance fitness of -0.127 ± 0.22.
Variant V22Q has an abundance fitness of -0.04 ± 0.24.
In the case of V22A, the abundance fitness is reported as -0.047 ± 0.13.
For V22G, the abundance fitness was -0.019 ± 0.1.
V22R showed an abundance fitness of 0.065 ± 0.1.
For V22N, the abundance fitness was 0.093 ± 0.21.
V22W gave an abundance fitness of -0.554 ± 0.2.
Work on L14N yielded an abundance fitness of -0.153 ± 0.073.
In the case of L14W, the abundance fitness is reported as 0.218 ± 0.054.
Variant L14M has an abundance fitness of 0.071 ± 0.12.
Variant L14P has an abundance fitness of -0.151 ± 0.1.
L14E gave an abundance fitness of -0.195 ± 0.081.
In the case of L14D, the abundance fitness is reported as -0.087 ± 0.072.
L14F gave an abundance fitness of -0.064 ± 0.093.
L14T showed an abundance fitness of -0.087 ± 0.074.
In the case of L14V, the abundance fitness is reported as -0.154 ± 0.056.
L14R showed an abundance fitness of 0.106 ± 0.055.
In the case of L14K, the abundance fitness is reported as 0.065 ± 0.068.
L14H showed an abundance fitness of 0.122 ± 0.084.
With L14G the abundance fitness was -0.082 ± 0.049.
L14C gave an abundance fitness of -0.198 ± 0.072.
L14A showed an abundance fitness of -0.186 ± 0.059.
With L14I the abundance fitness was 0.001 ± 0.21.
Q13K gave an abundance fitness of 0.128 ± 0.11.
Work on Q13E yielded an abundance fitness of 0.142 ± 0.062.
Q13D gave an abundance fitness of -0.109 ± 0.33.
Q13G showed an abundance fitness of -0.071 ± 0.045.
Q13T showed an abundance fitness of 0.124 ± 0.054.
Variant Q13S has an abundance fitness of 0.058 ± 0.045.
In the case of Q13N, the abundance fitness is reported as 0.21 ± 0.2.
Work on Q13I yielded an abundance fitness of -0.086 ± 0.22.
In the case of Q13R, the abundance fitness is reported as -0.135 ± 0.047.
Variant Q13P has an abundance fitness of -0.256 ± 0.048.
With Q13M the abundance fitness was -0.274 ± 0.17.
Q13Y showed an abundance fitness of -0.217 ± 0.17.
Q13A gave an abundance fitness of 0.004 ± 0.052.
For Q13V, the abundance fitness was -0.148 ± 0.053.
With L12G the abundance fitness was 0.117 ± 0.039.
In the case of L12M, the abundance fitness is reported as 0.195 ± 0.075.
In the case of L12S, the abundance fitness is reported as 0.202 ± 0.058.
L12P gave an abundance fitness of 0.151 ± 0.059.
L12I showed an abundance fitness of -0.231 ± 0.16.
With L12N the abundance fitness was 0.381 ± 0.14.
In the case of L12F, the abundance fitness is reported as -0.11 ± 0.13.
Work on L12T yielded an abundance fitness of -0.084 ± 0.061.
For L12K, the abundance fitness was -0.004 ± 0.086.
L12R showed an abundance fitness of 0.05 ± 0.041.
With L12Q the abundance fitness was -0.008 ± 0.058.
For L12V, the abundance fitness was -0.06 ± 0.05.
With F15E the abundance fitness was -0.126 ± 0.046.
For F15Q, the abundance fitness was 0.082 ± 0.061.
Work on F15A yielded an abundance fitness of -0.248 ± 0.046.
For F15S, the abundance fitness was -0.212 ± 0.059.
For F15C, the abundance fitness was 0.001 ± 0.078.
For F15L, the abundance fitness was -0.222 ± 0.051.
In the case of F15K, the abundance fitness is reported as 0.044 ± 0.067.
With F15T the abundance fitness was -0.292 ± 0.056.
Variant F15D has an abundance fitness of -0.329 ± 0.33.
With F15P the abundance fitness was -0.209 ± 0.062.
F15G showed an abundance fitness of -0.087 ± 0.041.
F15M gave an abundance fitness of -0.029 ± 0.055.
Work on F15R yielded an abundance fitness of -0.112 ± 0.044.
Variant F15N has an abundance fitness of -0.418 ± 0.1.
